The text below walks through data of US20200292534A1 (published 2020).

Read-outs that look alike come from different tables or passages of the source.

What all share (assay): luminescence complementation titration, one-site specific binding
The target of assay [1] is T1, NLpoly11S.
T1 chain: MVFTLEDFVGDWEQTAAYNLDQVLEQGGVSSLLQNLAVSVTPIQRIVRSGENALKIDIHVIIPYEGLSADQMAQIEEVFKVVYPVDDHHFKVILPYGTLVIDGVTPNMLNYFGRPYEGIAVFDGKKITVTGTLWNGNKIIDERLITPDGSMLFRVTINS

Assay [2] addresses T1, NLpoly11S.
For assay [3], the target named is T1, NLpoly11S.

Molecule MNVTGYRLFKKISN (other) [NLpep79-HaloTag] showed a Kd in the assay with NLpoly11S [1] of 22.9 nM.

Turning to VTGYRLFEEIL [NLpep114], in the assay with NLpoly11S [2], the Kd was 199000 nM. As for NVTGYRLFKKISN (other) [HaloTag-NLPep79], in the assay with NLpoly11S [1], the affinity, expressed as Kd, was 33.9 nM.

MNVSGWRLFKKISN (other) [NLpep78-HaloTag]: in the assay with NLpoly11S [3], the affinity, expressed as Kd, was 30.2 nM. In the assay with NLpoly11S [2], GVTGWRLCERILA [NLpep1] displayed a Kd of 2460 nM.

Regarding NVSGWRLFKKISN (other) [HaloTag-NLPep78], in the assay with NLpoly11S [3], binding was put at a Kd of 7.21 nM.

For orientation: Kd means the equilibrium constant for the complex coming apart. A low value points to a tighter complex.
